The record followed here is the supplement of paper PMC9170038.

The test system of the data set is MS2 coat protein. Briefly: apparent KD of MS2 coat protein; designed switch direction (-1 OFF switch, 1 ON switch): -1; higher = weaker reporter binding. An outline of the steps:
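For each design, the apparent KD is the median over clusters of curves fitted to normalised cluster fluorescence. Clusters held RNA switches with common flanks, transcribed on Illumina chips by stalled E. coli RNA polymerase. These were titrated with SNAP-549-labelled MS2 coat protein, doubling from 0.7 or 1.5 nM to 3 µM, without input, with 200 uM small-molecule ligand, or with an oligonucleotide input.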

The mark [1] stands for this setting: Eterna round: R95, input ligand: FMN 200 uM.
[2] abbreviates: Eterna round: R95, input ligand: microRNA oligo, concentration not stated.
[3] abbreviates: Eterna round: R95, input ligand: none.
The mark [4] stands for this setting: input ligand: microRNA oligo, concentration not stated.

As to “AGCCACAGAGGAUAUACAUACAUCCAGUGGUUAAGAAUACAACAUGAGGAUCACCCAUGUAGAAGGCUGUGGCA [Omei Ex2 BD B10] (Eterna round: R97, puzzle: Exclusion 2)”, the “apparent KD of MS2 coat protein” value was found to be 394 nM (input ligand: FMN 200 uM) and 152 nM (input ligand: none).
The corresponding values for “AGCCACAGAGGAUAUACAUACAUCCAGUGGUUAAGAAUACUACAUGAGGAUCACCCAUGUAGAAGGCUGUGGCA [Omei Ex2 BD B11] (Eterna round: R97, puzzle: Exclusion 2)” are 108 nM and 22.4 nM.
Regarding “AGCCCUGGCGUCAGGAUAUCGAAACCGCAAAAGGACGAGAAGGGACAUGAGGAUCACCCAUGUAGUGAGUUAAA [Isedrecedi] (puzzle: Brourd's mod of Exclusion 4)”, the “apparent KD of MS2 coat protein” value is, setting by setting: under setting [1], 35.6 nM; under setting [2], 34.5 nM; under setting [3], 39 nM.
With “AGCGAGCUAGGAUAUACAUGAGGAUCACCCAUGUCUUUUUAGUACUACGGUGGAAGAUGUAGAAGGAGUGAGAA [Soisza] (puzzle: Exclusion 3)”, the “apparent KD of MS2 coat protein” value under setting [2] stood at 92.3 nM.
For the sequence “AGCGGACAAGGAUAUACAUGAGGAUCACCCAUGUACUUAGCAAGUUUGUUUCGUCGAUGUAGAAGGUGUAAUGU [EX3 C.14] (Eterna round: R97, puzzle: Exclusion 3)”, the “apparent KD of MS2 coat protein” value is 19.4 nM (input ligand: FMN 200 uM) and 20.2 nM (input ligand: none).
Consider “AGCUAGUCAGGAUAUACAAACAUGUCAAAAGACGUGAAGAGACAUGAGGAUCACCCAUGUAGAAGGGACUAGCA [Mat - Exclusion 2 - JL mod - D13] (Eterna round: R96, puzzle: Exclusion 2)”, for which the “apparent KD of MS2 coat protein” value turned out to be 88.1 nM (input ligand: FMN 200 uM), 15.7 nM under setting [4] and 22.9 nM (input ligand: none).
Turning to “AGCUAGUGAGGAUAUACGAACAUGUCAAAAGACUGUAAGGGACAUGAGGAUCACCCAUGUAGAAGGCACUAGCA [Diamond 55] (Eterna round: R96, puzzle: Exclusion 2)”, under setting [4], the “apparent KD of MS2 coat protein” value is 32.4 nM.
As for “AGCUAUGCCGAGGAUAUCGGCUGGAUAAGACACUGAGAAGGCGGGACAUGAGGAUCACCCAUGUGAACCUAUAU [Eternabot (L1) Solution 30] (Eterna round: R97, puzzle: Exclusion 6)”, the “apparent KD of MS2 coat protein” value runs as follows: (input ligand: FMN 200 uM) 27.3 nM; (input ligand: none) 30.2 nM.
Regarding “AGCUGUGGCCAAGGAUAUCUAACCUUAAAUACCGACGUAUAGUCGGACAUGAGGAUCACCCAUGUGGAGAAGGUGGUCUCAGCA [Eli eng2 - 043] (Eterna round: R96, puzzle: Exclusion NG 2)”, the “apparent KD of MS2 coat protein” value under setting [4] was found to be 18.3 nM.
For “AGCUGUGGCCGAGGAUAUCUACAUGAGGAUCACCCAUGUGGGUGAAAUAUCGGGAAAACCUCGAUGGAGAAGGCGGUCUCAGCA [Eli eng2 - 046] (Eterna round: R96, puzzle: Exclusion NG 2)”, the “apparent KD of MS2 coat protein” value is, setting by setting: (input ligand: FMN 200 uM) 849 nM; under setting [4], 234 nM; (input ligand: none) 263 nM.
With “AGCUGUGGCCGAGGAUAUCUGAAACUCAAAACCGAAAUAUAAUCGGACAUGAGGAUCACCCAUGUAGAGAAGGCGGUCUCAGCA [Eli eng2 - 079] (Eterna round: R96, puzzle: Exclusion NG 2)”, the “apparent KD of MS2 coat protein” value under setting [4] came out at 126 nM.
For “AGCUUUUUGCUCGUCUUAUACAUGAGGAUCACCCAUGUAUUGGACCACAUCGAUAGAUGUGGACCAAGAAGCAUGGU [Omdei Mir OFFv1 C3] (Eterna round: R97, puzzle: Sensor, turn-off variant 1)”, the “apparent KD of MS2 coat protein” value runs as follows: (input ligand: FMN 200 uM) 46.8 nM; (input ligand: none) 45.2 nM.
On to “AGGAAUCUAGGAUAUAUAUGAAACGAUCCAGAUUCAAGGAAACAUGAGGAUCACCCAUGUAGAAGGAGAGAAAA [EX2 A.17] (Eterna round: R97, puzzle: Exclusion 2)”, for which the “apparent KD of MS2 coat protein” value came out at 23.4 nM (input ligand: FMN 200 uM) and 21.5 nM (input ligand: none).
Take “AGGACAUGAGGAUCACCCAUGUAGUGAGGUGUAUCCGAAGACGAGGAUAUACAGAGGAAAUAUCUGUAGAAGGUGUUAUAAAUU [Atleusan] (Eterna round: R96, puzzle: Exclusion NG 3)”: the “apparent KD of MS2 coat protein” value turned out to be 726 nM (input ligand: FMN 200 uM), 229 nM under setting [4] and 766 nM (input ligand: none).
In the case of “AGGAGUAGUAUCCGAUCCUACAUGAGGAUCACCCAUGUAGCUAGACGUGCACGCGAUGCUCGUCAGACUACCAGAUG [salish99_TOv1_r3_034] (puzzle: Sensor v3, turn-off variant 1)”, the “apparent KD of MS2 coat protein” value under setting [1] was found to be 99.4 nM, the “apparent KD of MS2 coat protein” value under setting [2] turned out to be 116 nM and the “apparent KD of MS2 coat protein” value under setting [3] was found to be 143 nM.
Regarding “AGGAUCCUAGGAUAUGCUGGGUAUCGCUGUCGGAGGGACAGACAUGAGGAUCACCCAUGUAGAAGGAGGCGCUC [Eternabot (L1) Solution 5] (Eterna round: R97, puzzle: Exclusion 2)”, the “apparent KD of MS2 coat protein” value was determined as 3680 nM (input ligand: FMN 200 uM) and 667 nM (input ligand: none).
As for “AGGAUGUUAGGAUAUCGAAGGUUGUGGCAGGCGGGAAUUUGCGAGAAGGAACAUGAGGAUCACCCAUGUGAAAU [JR_Exclu4_Sub044] (puzzle: Exclusion 4)”, under setting [2], the “apparent KD of MS2 coat protein” value amounted to 19.7 nM.
As for “AGGGAGUAAGGAUAUCGGAAAGGACACGAAAGUGACAAAGACGAGAAGGUACAUGAGGAUCACCCAUGUAAAAA [milkweed 24] (Eterna round: R96, puzzle: Exclusion 4)”, under setting [4], the “apparent KD of MS2 coat protein” value was 18.2 nM.
With “AGGGCUGCUCAGGAUAUCCGUAAAAGCCGAAAAGGAGAAGGGAGCACAUGAGGAUCACCCAUGUGAUCCUAAAA [Orbemaored] (puzzle: Exclusion 6)”, the “apparent KD of MS2 coat protein” value under setting [1] was 28 nM, the “apparent KD of MS2 coat protein” value under setting [2] was determined as 14.6 nM and the “apparent KD of MS2 coat protein” value under setting [3] came to 15.5 nM.
For “AGGUAACAUGAGGAUCACCCAUGUCAGGAUAUCAGUAAGAGGAGGAUAGAAUAGAGUAUGAGAAGGGACUAUAU [Excluse me! 23 - Jieux - Exclusion 1] (puzzle: Exclusion 1)”, in that order: 48 nM, 40.7 nM and 47.8 nM.
In the case of “AGGUAACAUGAGGAUCACCCAUGUCAGGAUAUCAUGAAGAGUAGAUUAGAGGAGAGGUUGAGAAGGGACUAUAU [Excluse me! 15 - Jieux - Exclusion 1] (puzzle: Exclusion 1)”, the “apparent KD of MS2 coat protein” value under setting [2] was 38.5 nM.
Same read-out and setting: the figure for “AGGUAGCAAGGAUAUACAACUUUGGGCACUGCCUCUUGGAGACAUGAGGAUCACCCAUGUAGAAGGUGCAGGCC [Tibiarusor] (puzzle: Exclusion 2)” is 11.7 nM.
In the case of “AGGUAGUCAGGAUAUUAAGAGUAGCGGGAUAACGCUACGAGUGAGAAGGGACAUGAGGAUCACCCAUGUUUAUU [JR_Ex4_Sub070] (Eterna round: R97, puzzle: Exclusion 4)”, the “apparent KD of MS2 coat protein” value runs as follows: (input ligand: FMN 200 uM) 23 nM; (input ligand: none) 24.8 nM.
Turning to “AGGUCAUUAGGAUAUGUCGAAUAUGACAUGAGGAUCACCCAUGUGGUAGGCAUGUCGUAGACAGAAGGAGUGUAAA [Laqureis] (Eterna round: R97, puzzle: Exclusion 5)”, the “apparent KD of MS2 coat protein” value is 219 nM (input ligand: FMN 200 uM) and 75.9 nM (input ligand: none).
For “AGGUCCUUCUGGAGACAUGAGGAUCACCCAUGUCGAGUCAGCGAGGAUAUCGGUAAGACAUGUGAUGAGAAGGCGCAGACCGAU [Ex NG3 #43] (Eterna round: R96, puzzle: Exclusion NG 3)”, the “apparent KD of MS2 coat protein” value by setting is: (input ligand: FMN 200 uM) 17.2 nM; under setting [4], 11.9 nM; (input ligand: none) 12.7 nM.
“AGGUCCUUCUGGAGACAUGAGGAUCACCCAUGUCGAGUCAGCGAGGAUAUCGGUUAAUAAUGUGAUGAGAAGGCGCGGACCGAU [Ex NG3 #54] (Eterna round: R96, puzzle: Exclusion NG 3)”: the “apparent KD of MS2 coat protein” value by setting is: (input ligand: FMN 200 uM) 41.5 nM; under setting [4], 11.6 nM; (input ligand: none) 19.3 nM.
On to “AGGUGACAUGAGGAUCACCCAUGUAAGGAUAUACGGUUAGUGGAGAGAGGGAAAAGAGGUAGAAGGUACGGAGC [JR_Exclu1_Sub057] (puzzle: Exclusion 1)”, for which, under setting [2], the “apparent KD of MS2 coat protein” value is 156 nM.
In the case of “AGGUGACAUGAGGAUCACCCAUGUAAGGAUAUACGGUUAGUGGAGAGAGGGAAGAGAGGUAGAAGGUACGGAGC [JR_Exclu1_Sub058] (puzzle: Exclusion 1)”, the “apparent KD of MS2 coat protein” value under setting [1] stood at 240 nM, the “apparent KD of MS2 coat protein” value under setting [2] is 227 nM and the “apparent KD of MS2 coat protein” value under setting [3] was determined as 316 nM.
For the sequence “AGGUGAUAUCUGUCGAUGGACAUGAGGAUCACCCAUGUGAGCUUUUUGCUCGUCUUAUAAACCGGUGACAGACCUUC [Sensor v3, turn-off variant 1 (MOD of Zalaso)] (puzzle: Sensor v3, turn-off variant 1)”, the “apparent KD of MS2 coat protein” value reads like this: under setting [1], 49.8 nM; under setting [2], 20.6 nM; under setting [3], 69.4 nM.
Turning to “AGGUGCUUCAGGAGACAUGAGGAUCACCCAUGUUGAGUUAGCGAGGAUAUCGGUAACCCUUGUGAUGAGAAGGCGCAAACCAGU [Ex NG3 #45] (Eterna round: R96, puzzle: Exclusion NG 3)”, the “apparent KD of MS2 coat protein” value reads like this: (input ligand: FMN 200 uM) 39.5 nM; under setting [4], 14.4 nM; (input ligand: none) 29.1 nM.
The corresponding values for “AGGUGCUUCUGGAGACAUGAGGAUCACCCAUGUUGAGUUAGCGAGGAUAUCGGUAAGGCAUGUGAUGAGAAGGCGCAAACCGAU [Ex NG3 #49] (Eterna round: R96, puzzle: Exclusion NG 3)” are 50.6 nM, 35.5 nM and 49.5 nM.
For “AGGUGUAGAGGAUAUUGAGUUCUUUACAUGAGGAUCACCCAUGUCCUGGGCACCCAGGACCAAGAAGGCUACACCA [Omei Ex5 D31] (Eterna round: R97, puzzle: Exclusion 5)”, the “apparent KD of MS2 coat protein” value is, setting by setting: (input ligand: FMN 200 uM) 38.4 nM; (input ligand: none) 72.6 nM.
